Data published in US20260125468A1 (NONA BIOSCIENCES SUZHOU, published 2026).
Substitutions are numbered along the chain they refer to. Names may count otherwise.

B1: PR006370, anti-CD3 SP34 chimeric hIgG1(AAG) (antibody, V domains shown)
VH: EVQLVESGGGLVQPKGSLKLSCAASGFTFNTYAMNWVRQAPGKGLEWVARIRSKYNNYATYYADSVKDRFTISRDDSQSILYLQMNNLKTEDTAMYYCVRHGNFGNSYVSWFAYWGQGTLVTVSA
VL: QAVVTQESALTTSPGETVTLTCRSSTGAVTTSNYANWVQEKPDHLFTGLIGGTNKRAPGVPARFSGSLIGDKAALTITGAQTEDEAIYFCALWYSNLWVFGGGTKLTVLG
notes: Mouse/human chimeric antibody, human IgG1 Fc-silent variant (L234A, L235A, P329G)
B2: PR008551, anti-B7H4xCD3 VH(3G11)-Fc-scFv(PR003366), hIgG1(dCH1, KiH, AAA) (bispecific antibody)
chain 1: RVHLAESGGGLVQAGGSLRLSCAASGSRLNDNAMAWFRQAPGKEREFVGSIFWTGGNTYYADAVKGRLTISRDNAKNALYLQMNSLKPEDTAVYYCAASRVVWYYCSGYGCSRAGDYVYWGQGTQVTVSSASEPKSSDKTHTCPPCPAPEAAGAPSVFLFPPKPKDTLMISRTPEVTCVVVDVSHEDPEVKFNWYVDGVEVHNAKTKPREEQYNSTYRVVSVLTVLHQDWLNGKEYKCKVSNKALPAPIEKTISKAKGQPREPQVYTLPPCREEMTKNQVSLWCLVKGFYPSDIAVEWESNGQPENNYKTTPPVLDSDGSFFLYSKLTVDKSRWQQGNVFSCSVMHEALHNHYTQKSLSLSPGK
chain 2: EIVMTQSPASLSVSPGERATLSCRASQSVSSNLAWYQQKPGQAPRLLIYGASTRATGIPARVSGGGSGTEFTLTISSLQSEDFAVYYCQQYKNWPFTFGPGTKLEIKGGGGSGGGGSGGGGSGGGGSQVQLVQSGAEVKKPGSSMRVSCKASEDTFSSYAISWVRQAPGQGLEWMGGTAPIFGTTNYAQKFQGRVTITADKSTSTAYMELSSLRSEDTAVYYCARGGPYFDYWGQGTLVTVSSASEPKSSDKTHTCPPCPAPEAAGAPSVFLFPPKPKDTLMISRTPEVTCVVVDVSHEDPEVKFNWYVDGVEVHNAKTKPREEQYNSTYRVVSVLTVLHQDWLNGKEYKCKVSNKALPAPIEKTISKAKGQPREPQVCTLPPSREEMTKNQVSLSCAVKGFYPSDIAVEWESNGQPENNYKTTPPVLDSDGSFFLVSKLTVDKSRWQQGNVFSCSVMHEALHNHYTQKSLSLSPGK
B3: PR010987, anti-B7H4xCD3 S140-Fc-scFv(PR003366), hIgG1(dCH1, KIH, AAA) (bispecific antibody)
chain 1: EVQLVESGGGLVQPGGSLRLSCAASGRTSGIPAMAWFRQAPGKGLEWVAMAWSGGGTIYADSVKGRFTISRDNSKNTLYLQMNSLRAEDTAVYYCARGRSTSNRADQYNYWGQGTLVTVSSASEPKSSDKTHTCPPCPAPEAAGAPSVFLFPPKPKDTLMISRTPEVTCVVVDVSHEDPEVKFNWYVDGVEVHNAKTKPREEQYNSTYRVVSVLTVLHQDWLNGKEYKCKVSNKALPAPIEKTISKAKGQPREPQVYTLPPCREEMTKNQVSLWCLVKGFYPSDIAVEWESNGQPENNYKTTPPVLDSDGSFFLYSKLTVDKSRWQQGNVFSCSVMHEALHNHYTQKSLSLSPGK
chain 2: B2 chain 2
B4: PR006003, anti-B7H4xCD3 VH(E2)-Fc-scFv(PR003366), hIgG1(dCH1, KiH, LALA) (bispecific antibody)
chain 1: not shown
chain 2: B2 chain 2 with A267G
B5: PR003899, anti-B7H4xCD3 Fab(PR003886)-Fc-scFv(PR003366), hIgG1(KIH, LALA) (bispecific antibody)
heavy: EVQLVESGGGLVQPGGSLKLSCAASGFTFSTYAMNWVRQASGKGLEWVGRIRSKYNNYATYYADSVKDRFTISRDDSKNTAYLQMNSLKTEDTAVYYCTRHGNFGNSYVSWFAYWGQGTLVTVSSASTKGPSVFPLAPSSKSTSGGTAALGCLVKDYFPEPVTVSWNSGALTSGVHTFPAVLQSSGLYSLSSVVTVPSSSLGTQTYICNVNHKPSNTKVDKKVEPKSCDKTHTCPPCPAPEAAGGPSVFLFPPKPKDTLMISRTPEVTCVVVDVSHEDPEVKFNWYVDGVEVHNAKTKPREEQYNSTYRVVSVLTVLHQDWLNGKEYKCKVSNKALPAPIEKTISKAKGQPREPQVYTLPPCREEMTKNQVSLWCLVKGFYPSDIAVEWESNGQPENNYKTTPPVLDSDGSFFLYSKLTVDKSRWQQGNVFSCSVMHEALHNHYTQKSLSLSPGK
light: QAVVTQEPSLTVSPGGTVTLTCRSSTGAVTTSNYANWVQQKPGQAPRGLIGGTNKRAPWTPARFSGSLLGDKAALTLLGAQPEDEAEYFCALWYSNLWVFGGGTKLTVLGQPKAAPSVTLFPPSSEELQANKATLVCLISDFYPGAVTVAWKADSSPVKAGVETTTPSKQSNNKYAASSYLSLTPEQWKSHRSYSCQVTHEGSTVEKTVAPTECS
chain: B2 chain 2 with A267G
B6: PR010983, anti-B7H4xCD3 S136-Fc-scFv(PR003366), hIgG1(dCH1, KIH, AAA) (bispecific antibody)
chain 1: B3 chain 1 with V5L, A35S, F37V, G44E, L45R, W47F, R97A, L116Q
chain 2: B2 chain 2
B7: PR003733, anti-B7H4xCD3 Fab(PR001848)-Fc-scFv(PR003366), hIgG1(KiH, LALA) (bispecific antibody)
heavy: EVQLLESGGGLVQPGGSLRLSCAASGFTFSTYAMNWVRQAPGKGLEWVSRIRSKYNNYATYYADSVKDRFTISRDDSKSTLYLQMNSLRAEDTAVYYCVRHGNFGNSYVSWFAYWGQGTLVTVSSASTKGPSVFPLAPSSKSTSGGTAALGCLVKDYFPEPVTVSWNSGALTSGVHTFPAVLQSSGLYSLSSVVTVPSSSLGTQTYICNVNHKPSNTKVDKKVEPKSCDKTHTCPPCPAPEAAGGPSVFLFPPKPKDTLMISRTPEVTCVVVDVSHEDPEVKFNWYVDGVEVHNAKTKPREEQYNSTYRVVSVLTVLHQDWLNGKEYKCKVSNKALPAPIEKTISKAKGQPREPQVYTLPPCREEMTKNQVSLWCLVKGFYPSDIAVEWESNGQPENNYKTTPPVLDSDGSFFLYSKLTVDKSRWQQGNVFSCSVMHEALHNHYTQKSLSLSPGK
light: B5 light
chain: B2 chain 2 with A267G
B8: PR010982, anti-B7H4xCD3 S135-Fc-scFv(PR003366), hIgG1(dCH1, KIH, AAA) (bispecific antibody)
chain 1: B3 chain 1 with V5L, A35S, F37V, R97A
chain 2: B2 chain 2
B9: PR006002, anti-B7H4xCD3 VH(A1)-Fc-scFv(PR003366), hIgG1(dCH1, KiH, LALA) (bispecific antibody)
chain 1: not shown
chain 2: B2 chain 2 with A267G
B10: PR010985, anti-B7H4xCD3 S138-Fc-scFv(PR003366), hIgG1(dCH1, KIH, AAA) (bispecific antibody)
chain 1: B3 chain 1 with V5L, A35S, F37V, R97A, R104Y
chain 2: B2 chain 2
B11: PR010984, anti-B7H4xCD3 S137-Fc-scFv(PR003366), hIgG1(dCH1, KIH, AAA) (bispecific antibody)
chain 1: B3 chain 1 with V5L, A35S, F37V, G44E, L45R, W47F, R97A, R104Y, L116Q
chain 2: B2 chain 2
B12: PR011628, anti-CD3 S135 HCAb hIgG1(C220S,AAG) (antibody, V domains shown)
VH: EVQLLESGGGLVQPGGSLRLSCAASGRTSGIPAMSWVRQAPGKGLEWVAMAWSGGGTIYADSVKGRFTISRDNSKNTLYLQMNSLRAEDTAVYYCAAGRSTSNRADQYNYWGQGTLVTVSS
notes: Humanized variant of PR006364; heavy-chain-only antibody
B13: PR011632, anti-CD3 S140 HCAb hIgG1(C220S,AAG) (antibody, V domains shown)
VH: B12 VH with L5V, S35A, V37F, A97R
notes: as for B12
B14: PR011631, anti-CD3 S138 HCAb hIgG1(C220S,AAG) (antibody, V domains shown)
VH: B12 VH with R104Y
notes: as for B12
B15: PR011629, anti-CD3 S136 HCAb hIgG1(C220S,AAG) (antibody, V domains shown)
VH: B12 VH with G44E, L45R, W47F, L116Q
notes: as for B12
B16: PR011630, anti-CD3 S137 HCAb hIgG1(C220S,AAG) (antibody, V domains shown)
VH: B12 VH with G44E, L45R, W47F, R104Y, L116Q
notes: as for B12

Experiments:
[1] = target: T1, cynoCD3e&d-his, Cynomolgus CD3 epsilon & CD3 delta Heterodimer Protein (Acro Biosystems, CDD-C52W4) (Cynomolgus, UniProt Q95LI5 22-117; Q95LI8 22-105); test: ELISA, plate coated with cyno CD3e&d-his at 1 µg/mL, anti-human IgG Fc-HRP [C]
T1 construct: Bought protein; also called cynomolgus CD3E&D heterodimer protein; not shown: His Tag fused to C-terminus of CD3 epsilon chain; Flag Tag fused to C-terminus of CD3 delta chain
Description: (§1) ELISA assays were conducted as briefly described: CD3 proteins were coated onto ELISA plates at 1 μg/mL; testing antibodies OKT3 and PR006364 (A1-HCAb) were diluted from 2 μg/mL to 8 different concentrations by 3-fold serial dilution, or testing antibodies PR006370 (SP34) and PR010991 (3G11-HCAb) were diluted from 100 nM to 11 different concentrations by 2-fold serial dilution; secondary antibody (anti-human IgG Fc-HRP) was used to detect PR006364, PR006370 and PR010991, and secondary antibody (anti-mouse IgG Fc-HRP) was used to detect OKT3 binding signal. The absorption signal at 450 nm (OD450) was recorded by plate reader (Molecular Devices, SpectraMax), and the data were processed and non-linear curve fitting analyzed by GraphPad Prism 8.

[2] = target: T2, hCD3e-his, Human CD3 epsilon Protein with His Tag (Acro Biosystems, CDE-H5223) (Human, UniProt P07766 23-126); test: ELISA, plate coated with human CD3e-his at 1 µg/mL, anti-human IgG Fc-HRP [E]
T2 construct: Bought protein; also called human CD3E monomeric protein; monomeric CD3E; not shown: His Tag
Description: as §1

[3] = target: T3, hCD3e&g-his, Human CD3 epsilon & CD3 gamma Heterodimer Protein with His Tag (Acro Biosystems, CDG-H52W5) (Human, UniProt P07766 23-126; P09693 23-116); test: ELISA, plate coated with human CD3e&g-his at 1 µg/mL, anti-human IgG Fc-HRP [D]
T3 construct: Bought protein; also called human CD3E&G heterodimer protein; not shown: His Tag fused to C-terminus of CD3 epsilon chain
Description: as §1

[4] = target: T4, hCD3e&d-his, Human CD3 epsilon & CD3 delta Heterodimer Protein with His Tag (Acro Biosystems, CDD-H52W1) (Human, UniProt P07766 23-126; P04234 22-105); test: ELISA, plate coated with human CD3e&d-his at 1 µg/mL, anti-human IgG Fc-HRP [B]
T4 construct: Bought protein; also called human CD3E&D heterodimer protein; not shown: His Tag fused to C-terminus of CD3 epsilon chain
Description: as §1

[5] = target: T5, CD3 on human T cells (human PBMCs or isolated T cells used as effector cells) (human, UniProt P07766 23-207; P04234 22-171; P09693 23-182); test: cell-based or functional assay
[6] = target: T5, CD3 on human T cells (human PBMCs or …); test: cell-based or functional assay; remark: listed apart in the source
[7] = target: human CD3E&D heterodimer protein (construct not specified; FIG. 9A and FIG. 12) (human, UniProt P07766 23-126; P04234 22-105); test: ELISA on coated human CD3e&d heterodimer protein (construct not named on the sheet)
[8] = target: T6, Biotinylated human CD3e&d protein (Acro Biosystems, CDD-H82W6) (human, UniProt P07766 23-126; P04234 22-105, biotinylated protein; chain and site not stated); test: BLI (Octet RED96e), biotinylated antigen on SA biosensors, antibody 0.375-12 nM
T6 construct: Bought protein loaded on SA Octet biosensors; also called human CD3 protein
Description: To determine the binding affinities of anti-CD3 antibodies to human or cynomolgus monkey CD3e&d heterodimer proteins, bio-layer interferometry (BLI) assays were carried out by using Octet® RED96e.
Biotinylated human CD3e&d protein (Acro Biosystems, CDD-H82W6) or biotinylated cynomolgus CD3e&d protein (Acro Biosystems, CDD-C82W6) was first loaded onto the surface of SA Octet biosensors (Sartorius, 18-5019) to reach capture levels between 0.5-0.8 nm. The loaded biosensors were then dipped in wells containing 2-fold serial dilutions of testing antibodies to detect association signals, followed by dissociation steps in wells containing kinetic buffer. The association phase was 180 seconds, and the dissociation phase was 900 seconds. The sensorgrams were recorded, and the reference signals were subtracted before curve fitting using ForteBio Data Analysis 11.0 software. Association rates (kon) and dissociation rates (koff) were calculated using a simple one-to-one Langmuir binding model. The equilibrium dissociation constant (KD) was calculated as the ratio of koff/kon.

T6 sequence (P07766 23-126, chain 1 of 2): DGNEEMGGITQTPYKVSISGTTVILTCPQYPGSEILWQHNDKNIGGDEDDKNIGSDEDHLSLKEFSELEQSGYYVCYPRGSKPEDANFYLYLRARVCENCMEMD
T6 sequence (P04234 22-105, chain 2 of 2): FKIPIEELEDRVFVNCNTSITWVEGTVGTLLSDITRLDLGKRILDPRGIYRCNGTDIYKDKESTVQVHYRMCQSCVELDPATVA
Chain of human CD3E&D heterodimer protein (construct not specified; FIG. 9A and FIG. 12) (P07766 23-126, chain 1 of 2): as the sequence (P07766 23-126, chain 1 of 2) above
Chain of human CD3E&D heterodimer protein (construct not specified; FIG. 9A and FIG. 12) (P04234 22-105, chain 2 of 2): as the sequence (P04234 22-105, chain 2 of 2) above
T5 sequence (P07766 23-207, chain 1 of 3): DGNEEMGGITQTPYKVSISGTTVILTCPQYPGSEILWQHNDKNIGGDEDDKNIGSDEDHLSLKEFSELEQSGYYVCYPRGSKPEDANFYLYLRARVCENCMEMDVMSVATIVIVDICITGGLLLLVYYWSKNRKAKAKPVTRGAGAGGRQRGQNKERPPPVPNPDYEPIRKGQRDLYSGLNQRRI
T5 sequence (P04234 22-171, chain 2 of 3): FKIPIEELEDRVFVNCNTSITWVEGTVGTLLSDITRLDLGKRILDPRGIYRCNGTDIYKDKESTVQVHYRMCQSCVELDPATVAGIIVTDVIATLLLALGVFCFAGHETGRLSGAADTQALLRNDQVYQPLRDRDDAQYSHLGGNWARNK
T5 sequence (P09693 23-182, chain 3 of 3): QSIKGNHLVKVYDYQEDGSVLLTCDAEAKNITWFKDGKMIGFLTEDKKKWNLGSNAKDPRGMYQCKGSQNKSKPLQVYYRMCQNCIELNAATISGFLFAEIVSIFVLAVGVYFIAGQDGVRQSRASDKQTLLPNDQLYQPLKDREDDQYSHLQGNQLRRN
T2 sequence (P07766 23-126 limits assumed): as the sequence (P07766 23-126, chain 1 of 2) above
T4 sequence (P07766 23-126, stated change not applied, chain 1 of 2): as the sequence (P07766 23-126, chain 1 of 2) above
T4 sequence (P04234 22-105, stated change not applied, chain 2 of 2): as the sequence (P04234 22-105, chain 2 of 2) above
T3 sequence (P07766 23-126, chain 1 of 2): as the sequence (P07766 23-126, chain 1 of 2) above
T3 sequence (P09693 23-116, chain 2 of 2): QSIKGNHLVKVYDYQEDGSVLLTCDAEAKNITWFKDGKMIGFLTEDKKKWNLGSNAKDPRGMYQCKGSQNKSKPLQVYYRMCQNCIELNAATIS
T1 sequence (Q95LI5 22-117, stated change not applied, chain 1 of 2): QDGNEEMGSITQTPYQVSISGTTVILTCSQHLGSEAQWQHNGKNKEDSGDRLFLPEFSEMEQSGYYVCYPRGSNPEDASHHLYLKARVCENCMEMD
T1 sequence (Q95LI8 22-105, stated change not applied, chain 2 of 2): as the sequence (P04234 22-105, chain 2 of 2) above, with I5V, N15K, I20V, S32T, D33N, I34N, T64A, S74N, V83L counted along it

Binder	EC50 of T cell-mediated cytotoxicity to MDA-MB-468 (RTCA) [5]	Max cytotoxicity (%) of T cell-mediated cytotoxicity to MDA-MB-468 (RTCA) [5]	EC50 of T cell-mediated cytotoxicity to MDA-MB-468 (RTCA, human T cells, E:T 10:1) [6]	other results
B1	–	–	–	EC50 (read off the curve) [1]: ~0.7 nM; EC50 (read off the curve) [2]: ~0.8 nM; EC50 (read off the curve) [3]: ~0.8 nM; EC50 (read off the curve) [4]: ~0.6 nM
B2	15.2 nM	90.7%	–	–
B3	–	–	0.263 nM	–
B4	0.0465 nM	95.1%	–	–
B5	0.112 nM	96.3%	–	–
B6	–	–	0.0602 nM	–
B7	0.0248 nM	95.2%	–	–
B8	–	–	0.247 nM	–
B9	0.033 nM	94.4%	0.00111 nM	–
B10	–	–	2.91 nM	–
B11	–	–	0.576 nM	–
B12	–	–	–	binding result [7]: binds
B13	–	–	–	binding result [7]: binds
B14	–	–	–	binding result [7]: binds
B15	–	–	–	Kd [8]: 0.168 nM; koff [8]: 0.00014 s⁻¹; kon [8]: 833000 M⁻¹ s⁻¹
B16	–	–	–	binding result [7]: binds
